In article PMC2270844, “Functional role of the additional domains in inulosucrase (IslA) from Leuconostoc citreum CW28” (BMC Biochemistry, 2008) one finds Km, kcat and kcat/Km data, which are given here for one protein.

Substrate in this data set: OC[C@H]1O[C@@](CO)(O[C@H]2O[C@H](CO)[C@@H](O)[C@H](O)[C@H]2O)[C@@H](O)[C@@H]1O
Nature of the data set: initial sucrose consumption rate, reducing sugar (DNS) assay, Michaelis-Menten fit. It counts as biochemical, Leuconostoc citreum. The note with it: pH 6.5 phosphate 50 mM, 30°C, 1 mM CaCl2, total Km (hydrolysis plus transglycosylation). The text has this:
initial sucrose consumption rate, reducing sugar (DNS) assay, Michaelis-Menten fit on IslA2

B1: IslA2 (Leuconostoc citreum) (protein)
chain: DVNQPLLAQENFSGNKTEPVPDKSNKNESVKDSKVATSDELAKDSKVATSDELAKDSKVATSDELAKDSKVATSDELVKDSKVATSDELAKDSKVATSDELAKDSKVATSDELAKDSKVATSDELAKDSKVATSDELAKDSKAPTNDVSVRAEKKSSLIDSPELNVKMSEMTSVPNLISDENSKNLVNSNELINGLSKRSLEIAHQAGIDVSRLNDIQKAALNKIKLVNEDGNKYVLDNTGSDYTKNTIIDKNNPDDTTKTTHITFANLDDAIKLAQKPDPKTTIPVFNASQINNLPASIFKDAQTNKVEKMDVWDSWALQDSKTGEVYNYHGKQVVFALMGAPLVQGDTHIYMLYNNYNNAKLDGWVNAGPVFGYNAKPESQEWSGSAVVNSDDSIQLFYTRVADDWKQALATVNIKITNSENSLGIQSLQNDHILFEGDGYFYSRKDQLKPQADMFTLRDPKLIELDDGERYLTFEANTGIYDEASDQQTVNLNNYGGGLTYDVARMLGVVNNSNRALYSSTANGAIGLLKLKGDYFNPILDRLYKPLITAVGVTDEIERANIVPFNGKYYLFTDSRFNRSAADNSPMSMAPDGAMMMGFVSDSLFGDYKPLNGNGIVLVTNNSFTSRTNTYSWYTVPVKGRPDLMLVTSYMTNRGLASGTDQYSTFAPSFLLKIDGDQTHVLNTVTEQGDWVWGDDDHSIVELLALNTEDAYLTNNQKNINYSPDWSNIDGYGYPIVTNIKDVDLTFYISGILSPDSLFKNAPGRHQGARIIGSTSQYNTEKVSAIKEYTDDLNTIWYLVNLAGNNFWIKGSSLVTVPMTDSTFRNAYIVKDSDMYLDAPQGETNAKYYQSSNSYNDAYVIVGGEYKDAHGITWNLIKLNDKILWINKNSLAISFSRDLN
notes: C-terminal truncation, last 551 residues deleted; variable region, catalytic domain and transition region kept; 102 kDa plus 16 kDa N-terminal thioredoxin fusion, His tag; E. coli TOP10, pBAD/Thio TOPO, Ni-NTA
By Km is commonly meant the concentration of substrate that gives half-maximal velocity. By kcat is commonly meant the number of substrate molecules converted per active site and unit of time at saturation. The kcat/Km is the second-order rate constant that governs catalysis at low substrate concentration. With B1, the Km is given as 24 mM, the turnover number (kcat) was 28.2 s⁻¹ and the kcat/Km came out at 1170 M⁻¹ s⁻¹.
